This assay has as its target F-actin (rabbit skeletal muscle α-actin filaments) (rabbit, UniProt P68135 1-377). Nature of the assay: co-sedimentation; 2 µM F-tractinopt-mCherry fusions incubated with F-actin at increasing concentrations for 5 min at room temperature, 120,000 g for 20 min at 4°C; supernatant and pellet on SDS-PAGE, densitometry; Kd by GraphPad Prism. The note with it: both partners purified.

B1: F-tractinopt–mCherry fusion (domain or fragment)
chain: APRRSVGELRLLFEARAASAA
notes: rat inositol 1,4,5-trisphosphate 3-kinase A; numbers count on: the 43-residue F-tractin peptide (peptide residue n = kinase residue n+9); source: E. coli BL21-CodonPlus(DE3)-RIPL, purified (Protino Ni-IDA resin)
In the case of B1, binding was characterised by a dissociation constant (Kd) of 8.5 ± 1.2 µM.

In general, Kd refers to a measure of binding affinity in units of concentration. A low value points to tighter binding.

The record behind these values is publication PMC11809415 (The Journal of Cell Biology, 2025).
